Data taken from patent US20040077526A1.

Experiments:
[1] = molecular target: murine SR-BI (mSR-BI), class B type I scavenger receptor (murine) (UniProt Q61009); assay: self-competition: unlabeled HDL (500 µg protein/ml) against [125I,3H]hHDL3 (10 µg protein/ml) on Y1-BS1 cells
[2] = molecular target: murine SR-BI (mSR-BI), class B type I scavenger receptor (murine) (UniProt Q61009); assay: cell association of 125I-HDL with ldlA[mSR-BI] cells at 37 C
[3] = molecular target: murine SR-BI (mSR-BI), class B type I scavenger receptor (murine) (UniProt Q61009); assay: time course of cell association of 125I-HDL with ldlA[mSR-BI] cells at 37 C

Chain of UniProt Q61009 (Q61009 whole entry): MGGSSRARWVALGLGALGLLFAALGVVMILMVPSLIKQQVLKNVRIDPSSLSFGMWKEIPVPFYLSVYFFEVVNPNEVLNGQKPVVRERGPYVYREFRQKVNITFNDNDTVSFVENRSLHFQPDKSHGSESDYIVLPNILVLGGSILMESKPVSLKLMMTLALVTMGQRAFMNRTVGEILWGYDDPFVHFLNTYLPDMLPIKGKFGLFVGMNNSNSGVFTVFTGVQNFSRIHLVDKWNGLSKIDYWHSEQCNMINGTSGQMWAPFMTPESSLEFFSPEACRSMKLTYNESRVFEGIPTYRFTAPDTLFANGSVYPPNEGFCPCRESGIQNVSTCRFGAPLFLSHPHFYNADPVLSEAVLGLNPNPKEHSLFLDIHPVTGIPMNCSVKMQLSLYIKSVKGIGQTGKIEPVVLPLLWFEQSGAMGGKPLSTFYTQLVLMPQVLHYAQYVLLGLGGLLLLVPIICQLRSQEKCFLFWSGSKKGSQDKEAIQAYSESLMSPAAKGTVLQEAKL

| reduction of cell association of HDL [1] [%] | fraction of the total label bound to the transfected cells in 5 hours [2] [%] | cell-associated 125I-HDL at steady state (ng protein/mg cell protein) [3] | Substance |
| --- | --- | --- | --- |
| 85 | – | – | human HDL3 (hHDL3, 1.125-1.210 g/ml) labeled with [125I]dilactitol tyramine and [3H]cholesteryl oleolyl ether |
| – | < 0.5 | 200 | human HDL (high density lipoprotein prepared from human plasma by zonal centrifugation) (from UniProt P02647 25-267; P02652 24-100) |
